# Results taken from the supplement of paper PMC7877785.
# ± gives the uncertainty stated by the source.
# Assay: self-splicing fitness, log relative to wild type (ln ratio); higher = more splicing; Tetrahymena group I intron in knt gene, E. coli kanamycin selection, DiMSum; sequences stand for … in CUCUCU…GGAGGGAAAAGUUAUCAGGCAUGCACCUGGUAGCUAGUCUUUAAACCAAUAGAUUGCAUCGGUUUAAAAGGCAAGACCGUCAAAUUGCGGGAAAGGGGUCAACAGCCGUUCAGUACCAAGUCUCAGGGGAAACUUUGAGAUGGCCUUGCAAAGGGUAUGGUAAUAAGCUGACGGACAUGGUCCUAACCACGCAGCCAAGUCCUAAGUCAACAGAUCUUCUGUUGAUAUGGAUGCAGUUCACAGACUAAAUGUCGGUCGGGGAAGAUGUAUUCUUCUCAUAAGAUAUAGUCGGACCUCUCCUUAAUGGGAGCUAGCGGAUGAAGUGAUGCAACACUGGAGCCGCUGGGAACUAAUUUGUAUGCGAAAGUAUAUUGAUUAGUUUUGGAGUACUCGUGGUCG
# Method in brief: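 Fitness was computed with DiMSum as the error-weighted combination of replicate fold changes, kanamycin versus none, each normalised to wild type. The library randomised all eight intron nucleotides of the P1ex region, with the intron placed in the knt kanamycin-resistance gene on pET-22b(+) in E. coli BL21(DE3). Six replicate transformations were grown overnight at 37°C or 30°C on LB agar with or without 25 μg/mL kanamycin, plus 100 μg/mL carbenicillin, 50 μM IPTG and 0.2% rhamnose. Pooled colonies were amplicon-sequenced on an Illumina HiSeq 2500.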
Sequence,self-splicing fitness (ln) (30 °C),self-splicing fitness (ln) (37 °C)
UCUAAGCAAUAUUACGGGCC,-3.14 ± 0.33,-2.09 ± 0.33
CUGAAGCAAUAUUACGGCGU,-3.6 ± 0.41,-2.98 ± 0.47
GAUAAGCAAUAUUACGACUU,0.544 ± 0.08,0.0887 ± 0.095
GGCCAGCAAUAUUACGUCGC,-1.17 ± 0.11,-0.0357 ± 0.11
CGGUAGCAAUAUUACGCAGU,-4.22 ± 0.22,-2.63 ± 0.16
GUUGAGCAAUAUUACGCGGA,–,-0.744 ± 0.35
GUAAAGCAAUAUUACGAUAG,-1.08 ± 0.075,-0.747 ± 0.11
CACCAGCAAUAUUACGUAGA,-1.46 ± 0.052,-0.916 ± 0.064
GAUGAGCAAUAUUACGGUUC,-4.06 ± 0.33,-2.32 ± 0.35
GUUUAGCAAUAUUACGGAUC,-1.18 ± 0.11,0.125 ± 0.12
GAGUAGCAAUAUUACGCCAG,-3.3 ± 0.26,-2.75 ± 0.48
CUAUAGCAAUAUUACGUAAU,-2.07 ± 0.16,-3.88 ± 0.36
AUAAAGCAAUAUUACGCAAC,-1.38 ± 0.13,-1.34 ± 0.21
UCUCAGCAAUAUUACGAUUA,-0.806 ± 0.11,-0.539 ± 0.12
UCCGAGCAAUAUUACGUAUC,-2.88 ± 0.25,-2.07 ± 0.37
CCAAAGCAAUAUUACGCACG,-0.44 ± 0.087,-0.583 ± 0.11
GAUAAGCAAUAUUACGGGGG,-3.65 ± 0.26,-3.04 ± 0.28
ACACAGCAAUAUUACGUUAU,-3.35 ± 0.11,-2.65 ± 0.12
GGCCAGCAAUAUUACGAGUG,-2.55 ± 0.11,-1.14 ± 0.093
AACAAGCAAUAUUACGCUUG,-2.82 ± 0.12,-2.28 ± 0.16
AAUGAGCAAUAUUACGUGUG,-4.35 ± 0.3,-1.65 ± 0.17
AUCUAGCAAUAUUACGCUCU,-0.469 ± 0.11,-0.244 ± 0.12
ACGCAGCAAUAUUACGGCCU,0.271 ± 0.063,0.881 ± 0.091
ACGGAGCAAUAUUACGGUUC,-4.29 ± 0.37,-1.32 ± 0.22
CUCUAGCAAUAUUACGUCUU,-2.57 ± 0.12,-3.16 ± 0.16

Sequence,self-splicing fitness (ln) (30 °C),self-splicing fitness (ln) (37 °C)
GGCUAGCAAUAUUACGUGCC,-2.22 ± 0.25,–
GGGCAGCAAUAUUACGUUCA,-0.593 ± 0.075,-0.158 ± 0.12
CAUUAGCAAUAUUACGUCCA,-3.34 ± 0.32,-1.3 ± 0.28
GAGAAGCAAUAUUACGGUAU,-1.67 ± 0.096,-1.79 ± 0.17
CCUAAGCAAUAUUACGCUCG,–,-2.15 ± 0.3
GUUGAGCAAUAUUACGUUCU,-1.82 ± 0.14,-1.2 ± 0.13
GCUCAGCAAUAUUACGAAAG,-1.71 ± 0.11,-1.93 ± 0.13
CUCGAGCAAUAUUACGUAGC,–,-2.19 ± 0.27
GGGAAGCAAUAUUACGACUA,-0.9 ± 0.15,0.352 ± 0.17
AGACAGCAAUAUUACGUCGA,-1.01 ± 0.089,-1.07 ± 0.12
GACUAGCAAUAUUACGUGUU,-2.22 ± 0.11,-2.07 ± 0.17
GGUCAGCAAUAUUACGUCUU,0.322 ± 0.078,0.402 ± 0.089
AGGCAGCAAUAUUACGCGCC,-2.4 ± 0.32,-0.401 ± 0.29
CACAAGCAAUAUUACGCGCC,-3.41 ± 0.26,-1.32 ± 0.16
CAUGAGCAAUAUUACGCAUC,-2.04 ± 0.31,-2.41 ± 0.33
UGGAAGCAAUAUUACGCUGC,-3.48 ± 0.32,-2.15 ± 0.38
GGUGAGCAAUAUUACGUAAA,-2.79 ± 0.3,-1.45 ± 0.31
UUCAAGCAAUAUUACGGAUA,-1.18 ± 0.14,-0.384 ± 0.12
UGGAAGCAAUAUUACGACGC,-1.66 ± 0.22,-1.05 ± 0.28
UAACAGCAAUAUUACGUAGG,-2.08 ± 0.065,-1.65 ± 0.079
GAUCAGCAAUAUUACGUAAG,-1.58 ± 0.097,-1.13 ± 0.12
CCGGAGCAAUAUUACGACCG,-1.71 ± 0.5,–
GGCUAGCAAUAUUACGCCGC,-3.44 ± 0.41,–
UUUCAGCAAUAUUACGAAGU,-1.82 ± 0.22,0.335 ± 0.25
AAAGAGCAAUAUUACGCUGA,-2.1 ± 0.14,-2.6 ± 0.26
